Reference: patent US20230340151A1 (Pfizer, published 2023)

Tests used:
Assay in all cases: peptide DELFIA ELISA;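 note: epitope mapping using overlapping 20-mer GUCY2C peptides covering residues 1-440, extracellular into transmembrane domain, coated at 20 µg/ml as target antigen and probed with antibodies or GUCY2C-CD3 bispecifics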
GUCY2C_ECD Peptide 77 = biological target: T1, GUCY2C_ECD Peptide 77 (human)
T1 peptide: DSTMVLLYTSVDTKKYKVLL
Method: (§1) Arrays were reconstituted with acetonitrile to 100 μg/ml and were then further diluted to 20 μg/ml with sodium carbonate/bicarbonate buffer. Purified antibodies or GUCY2c-CD3 bispecifics were then tested by Delfia ELISA for binding to the different peptides using Delfia ELISA methods previously discussed, with diluted peptides used as the target antigen.

GUCY2C_ECD Peptide 32 = biological target: T2, GUCY2C_ECD Peptide 32 (human)
T2 peptide: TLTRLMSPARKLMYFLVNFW
Method: as §1

GUCY2C_ECD Peptide 21 = biological target: T3, GUCY2C_ECD Peptide 21 (human)
T3 peptide: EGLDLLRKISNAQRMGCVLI
Method: as §1

GUCY2C_ECD Peptide 23 = biological target: T4, GUCY2C_ECD Peptide 23 (human)
T4 peptide: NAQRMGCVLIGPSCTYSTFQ
Method: as §1

GUCY2C_ECD Peptide 63 = biological target: T5, GUCY2C_ECD Peptide 63 (human)
T5 peptide: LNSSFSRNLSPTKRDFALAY
Method: as §1

GUCY2C_ECD Peptide 8 = biological target: T6, GUCY2C_ECD Peptide 8 (human)
T6 peptide: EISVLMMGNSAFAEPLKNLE
Method: as §1

GUCY2C_ECD Peptide 11 = biological target: T7, GUCY2C_ECD Peptide 11 (human)
T7 peptide: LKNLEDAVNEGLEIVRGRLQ
Method: as §1

GUCY2C_ECD Peptide 60 = biological target: T8, GUCY2C_ECD Peptide 60 (human)
T8 peptide: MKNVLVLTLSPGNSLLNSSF
Method: as §1

GUCY2C_ECD Peptide 55 = biological target: T9, GUCY2C_ECD Peptide 55 (human)
T9 peptide: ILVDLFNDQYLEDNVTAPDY
Method: as §1

GUCY2C_ECD Peptide 84 = biological target: T10, GUCY2C_ECD Peptide 84 (human)
T10 peptide: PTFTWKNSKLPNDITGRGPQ
Method: as §1

GUCY2C_ECD Peptide 45 = biological target: T11, GUCY2C_ECD Peptide 45 (human)
T11 peptide: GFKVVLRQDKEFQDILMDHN
Method: as §1

GUCY2C_ECD Peptide 89 = biological target: T12, GUCY2C_ECD Peptide 89 (human)
T12 peptide: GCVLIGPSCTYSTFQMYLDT
Method: as §1

GUCY2C_ECD Peptide 85 = biological target: T13, GUCY2C_ECD Peptide 85 (human)
T13 peptide: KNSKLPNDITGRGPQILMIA
Method: as §1

GUCY2C_ECD Peptide 25 = biological target: T14, GUCY2C_ECD Peptide 25 (human)
T14 peptide: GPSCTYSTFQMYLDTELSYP
Method: as §1

GUCY2C_ECD Peptide 34 = biological target: T15, GUCY2C_ECD Peptide 34 (human)
T15 peptide: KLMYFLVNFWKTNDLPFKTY
Method: as §1

GUCY2C_ECD Peptide 33 = biological target: T16, GUCY2C_ECD Peptide 33 (human)
T16 peptide: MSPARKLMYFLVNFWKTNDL
Method: as §1

GUCY2C_ECD Peptide 82 = biological target: T17, GUCY2C_ECD Peptide 82 (human)
T17 peptide: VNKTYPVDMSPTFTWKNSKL
Method: as §1

GUCY2C_ECD Peptide 44 = biological target: T18, GUCY2C_ECD Peptide 44 (human)
T18 peptide: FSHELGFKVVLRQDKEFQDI
Method: as §1

GUCY2C_ECD Peptide 87 = biological target: T19, GUCY2C_ECD Peptide 87 (human)
T19 peptide: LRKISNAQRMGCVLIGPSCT
Method: as §1

GUCY2C_ECD Peptide 31 = biological target: T20, GUCY2C_ECD Peptide 31 (human)
T20 peptide: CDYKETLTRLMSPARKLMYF
Method: as §1

GUCY2C_ECD Peptide 27 = biological target: T21, GUCY2C_ECD Peptide 27 (human)
T21 peptide: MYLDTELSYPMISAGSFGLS
Method: as §1

GUCY2C_ECD Peptide 2 = biological target: T22, GUCY2C_ECD Peptide 2 (human)
T22 peptide: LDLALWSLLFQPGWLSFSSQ
Method: as §1

GUCY2C_ECD Peptide 36 = biological target: T23, GUCY2C_ECD Peptide 36 (human)
T23 peptide: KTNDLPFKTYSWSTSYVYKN
Method: as §1

GUCY2C_ECD Peptide 58 = biological target: T24, GUCY2C_ECD Peptide 58 (human)
T24 peptide: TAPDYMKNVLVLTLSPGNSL
Method: as §1

GUCY2C_ECD Peptide 61 = biological target: T25, GUCY2C_ECD Peptide 61 (human)
T25 peptide: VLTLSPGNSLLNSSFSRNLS
Method: as §1

GUCY2C_ECD Peptide 7 = biological target: T26, GUCY2C_ECD Peptide 7 (human)
T26 peptide: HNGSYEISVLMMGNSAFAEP
Method: as §1

GUCY2C_ECD Peptide 76 = biological target: T27, GUCY2C_ECD Peptide 76 (human)
T27 peptide: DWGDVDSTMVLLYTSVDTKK
Method: as §1

GUCY2C_ECD Peptide 42 = biological target: T28, GUCY2C_ECD Peptide 42 (human)
T28 peptide: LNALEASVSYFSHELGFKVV
Method: as §1

GUCY2C_ECD Peptide 43 = biological target: T29, GUCY2C_ECD Peptide 43 (human)
T29 peptide: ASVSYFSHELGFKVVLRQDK
Method: as §1

GUCY2C_ECD Peptide 15 = biological target: T30, GUCY2C_ECD Peptide 15 (human)
T30 peptide: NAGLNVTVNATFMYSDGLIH
Method: as §1

GUCY2C_ECD Peptide 54 = biological target: T31, GUCY2C_ECD Peptide 54 (human)
T31 peptide: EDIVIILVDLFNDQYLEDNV
Method: as §1

GUCY2C_ECD Peptide 81 = biological target: T32, GUCY2C_ECD Peptide 81 (human)
T32 peptide: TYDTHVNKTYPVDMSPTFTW
Method: as §1

GUCY2C_ECD Peptide 70 = biological target: T33, GUCY2C_ECD Peptide 70 (human)
T33 peptide: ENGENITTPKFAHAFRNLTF
Method: as §1

GUCY2C_ECD Peptide 40 = biological target: T34, GUCY2C_ECD Peptide 40 (human)
T34 peptide: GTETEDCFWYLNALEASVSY
Method: as §1

GUCY2C_ECD Peptide 49 = biological target: T35, GUCY2C_ECD Peptide 49 (human)
T35 peptide: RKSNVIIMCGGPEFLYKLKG
Method: as §1

GUCY2C_ECD Peptide 3 = biological target: T36, GUCY2C_ECD Peptide 3 (human)
T36 peptide: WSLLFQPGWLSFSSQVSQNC
Method: as §1

B1: GUCY2C-1608 (bispecific antibody)
chain 1: DIQLTQSPSSLSASVGDRVTITCRASESVDYYGSSLLQWYQQKPGKAPKLLIYAASKLASGVPSRFSGSGSGTDFTLTISSLQPEDFATYYCQQTRKAYTFGQGTKLEIKGGGSGGGGEVQLVESGGGLVQPGGSLRLSCAASGFTFSDYYMTWVRQAPGKGLEWVAFIRNQARGYTSDHNPSVKGRFTISRDNAKNSLYLQMNSLRAEDTAVYYCARDRPSYYVLDYWGQGTTVTVSSGCPPCPAPEAAGAPSVFLFPPKPKDTLMISRTPEVTCVVVDVSHEDPEVKFNWYVDGVEVHNAKTKPREEQYNSTYRVVSVLTVLHQDWLNGKEYKCKVSNKALPAPIEKTISKAKGQPREPQVCTLPPSREEMTKNQVSLWCLVKGFYPSDIAVEWESNGQPENNYKTTPPVLDSDGSFFLYSKLTVDKSRWQQGNVFSCSVMHEALHNHYTQKSLSLSPG
chain 2: DIQMTQSPSSLSASVGDRVTITCTSSQSLFNVRSQKNYLAWYQQKPGKAPKLLIYWASTRESGVPSRFSGSGSGTDFTLTISSLQPEDFATYYCKQSYDLFTFGGGTKVEIKGGGGSGGGGEVQLVESGGGLVQPGGSLRLSCAASGFTFSSYWMHWVRQAPGKGLEWIGEIKPSNELTNVHEKFKDRFTISVDKAKNSAYLQMNSLRAEDTAVYYCTRTITTTEGYWFFDVWGQGTLVTVSSGCPPCPAPEAAGAPSVFLFPPKPKDTLMISRTPEVTCVVVDVSHEDPEVKFNWYVDGVEVHNAKTKPREEQYNSTYRVVSVLTVLHQDWLNGKEYKCKVSNKALPAPIEKTISKAKGQPREPQVYTLPPCREEMTKNQVSLSCAVKGFYPSDIAVEWESNGQPENNYKTTPPVLDSDGSFFLVSKLTVDKSRWQQGNVFSCSVMHEALHNHYTQKSLSLSPG
notes: also called GUCY2c CD3 bispecific
B1 was tested, and the “DELFIA TRF” value (GUCY2C_ECD Peptide 77) was 98.2, the “DELFIA TRF” value (GUCY2C_ECD Peptide 32) was 83.2 and the “DELFIA TRF” value (GUCY2C_ECD Peptide 21) was 81. For the same binder, the “DELFIA TRF” value (GUCY2C_ECD Peptide 23) was 96.2, the “DELFIA TRF” value (GUCY2C_ECD Peptide 63) was 110 and the “DELFIA TRF” value (GUCY2C_ECD Peptide 8) was 148. For the same binder, the “DELFIA TRF” value (GUCY2C_ECD Peptide 11) was 101, the “DELFIA TRF” value (GUCY2C_ECD Peptide 60) was 150 and the “DELFIA TRF” value (GUCY2C_ECD Peptide 55) was 100. The “DELFIA TRF” value (GUCY2C_ECD Peptide 84) was 133, the “DELFIA TRF” value (GUCY2C_ECD Peptide 45) was 108 and the “DELFIA TRF” value (GUCY2C_ECD Peptide 89) was 115. For the same binder, the “DELFIA TRF” value (GUCY2C_ECD Peptide 85) was 163, the “DELFIA TRF” value (GUCY2C_ECD Peptide 25) was 131 and the “DELFIA TRF” value (GUCY2C_ECD Peptide 34) was 99. The “DELFIA TRF” value (GUCY2C_ECD Peptide 33) was 87.5, the “DELFIA TRF” value (GUCY2C_ECD Peptide 82) was 99.2 and the “DELFIA TRF” value (GUCY2C_ECD Peptide 44) was 90.5. The “DELFIA TRF” value (GUCY2C_ECD Peptide 87) was 102, the “DELFIA TRF” value (GUCY2C_ECD Peptide 31) was 90.2 and the “DELFIA TRF” value (GUCY2C_ECD Peptide 27) was 105. The “DELFIA TRF” value (GUCY2C_ECD Peptide 2) was 106, the “DELFIA TRF” value (GUCY2C_ECD Peptide 36) was 112 and the “DELFIA TRF” value (GUCY2C_ECD Peptide 58) was 98.5. For the same binder, the “DELFIA TRF” value (GUCY2C_ECD Peptide 61) was 126, the “DELFIA TRF” value (GUCY2C_ECD Peptide 7) was 136 and the “DELFIA TRF” value (GUCY2C_ECD Peptide 76) was 102. The “DELFIA TRF” value (GUCY2C_ECD Peptide 42) was 96.5, the “DELFIA TRF” value (GUCY2C_ECD Peptide 43) was 104 and the “DELFIA TRF” value (GUCY2C_ECD Peptide 15) was 88.8. The “DELFIA TRF” value (GUCY2C_ECD Peptide 54) was 112, the “DELFIA TRF” value (GUCY2C_ECD Peptide 81) was 109 and the “DELFIA TRF” value (GUCY2C_ECD Peptide 70) was 91.8. For the same binder, the “DELFIA TRF” value (GUCY2C_ECD Peptide 40) was 85.2, the “DELFIA TRF” value (GUCY2C_ECD Peptide 49) was 129 and the “DELFIA TRF” value (GUCY2C_ECD Peptide 3) was 97.8.
